# Assay results reported in patent US20070117770, “Human ribosomal DNA (rDNA) and ribosomal RNA (rRNA) nucleic acids and uses thereof” (Cylene Pharmaceuticals, Inc., published 2007).
# B1: 8511NT (structured_DNA)
# DNA: GGGGGCGGGCTCCGGCGGGTGCGGGGGTGGGCGGGCGGGGCCGGGGGTGGGGTCGGCGGGGG
# Tests used:
# [1] = target: T1, Nucleolin (MBP fusion, lacking N-terminal acidic stretches domain) (Homo sapiens, UniProt P19338 P19338:284-710); assay: filter; Bmax 100%; 62-mer printed here, Example 6 table prints a shorter sequence under the same name; settings: label: 32P; G4 mixed
# Experimental: (§1) The assay also was conducted in a filter-binding format. In such forms of the assay, 0.2 nM of ³²P-labeled quadruplexes were incubated in 50 uL of the binding buffer (12.5 mM Tris-HCl, pH 7.6, 60 mM KCl, 1 mM MgCl2, 0.1 mM EDTA, 5% glycerol, 0.1 mg/mL BSA) for 10 min at 85 C and then for 10 min on ice and mixed with another 50 uL of binding buffer containing increasing amounts of recombinant protein Nucleolin. The protein-quadruplex mixtures were incubated for 30 min at ambient temperature and filtered through mixed cellulose ester membrane filters (Millipore) with gentle suction. The filters were washed twice with […] of binding buffer, dried and OptiPhase ‘SuperMix’ scintillation cocktail (Perkin Elmer) was added to the wells. Radioactivity was assayed with MicroBeta scintillation counter (Perkin Elmer). Binding curves were constructed and apparent Kd's and Bmax's for the complexes were calculated using the GraphPad Prizm software program (GraphPad Software). […]
# [2] = target: T1, Nucleolin (MBP fusion, lacking …); assay: filter; Bmax 60%; 60 mM KCl, 1 mM MgCl2; settings: label: 32P; G4 mixed
# Experimental: as §1
# [3] = target: T1, Nucleolin (MBP fusion, lacking …); assay: filter; Bmax 13%; 60 mM KCl, 1 mM MgCl2; settings: label: 32P; G4 antiparallel
# Experimental: as §1
# [4] = target: T1, Nucleolin (MBP fusion, lacking …); assay: EMSA; settings: label: 32P; G4 antiparallel
# Experimental: The following assays assessed effects of compounds on interactions between nucleolin and nucleic acid ligands capable of forming quadruplex (QP) and hairpin (HP) secondary structures. Nucleic acid ligands tested were a cMyc QP DNA having nucleotide sequence 5′-[…]-3′ (SEQ ID NO: 176) and a HP pre-rRNA region to which nucleolin binds, having the sequence 5′-[…]-3′ (SEQ ID NO: 177). In the assays, recombinant nucleolin (˜250 nM), which was fused to maltose binding protein and had the sequence under accession number NM_{—}005381 without the N-terminal acidic stretches domain, was incubated with each of the two ³²P-labeled nucleic acid ligands (10 or 250 nM). Nucleolin and the nucleic acid ligand were incubated in the presence or absence of a test compound of Formula A-1, B-1, C-6 or C-7 in an incubation buffer (12.5 mM Tris, pH 7.6, 60 mM KCl, 1 mM MgCl₂, 0.1 mM EDTA, 1 mM DTT, 5% glycerol, 0.1 mg/ml BSA) for 30 minutes at room temperature. […]
# The assay also was conducted using nucleic acid ligands derived from human ribosomal DNA. […] It was determined from these assays that compound A-1, but not Actinomycin D, interfered with nucleolin/nucleic acid ligand interactions. […]
# [5] = target: T1, Nucleolin (MBP fusion, lacking …); assay: EMSA; complex disrupted by compounds A-1, B-1, C-6, C-7; 60 mM KCl, 1 mM MgCl2, room temperature; settings: label: 32P; G4
# Experimental: The following assays assessed effects of compounds on interactions between nucleolin and nucleic acid ligands capable of forming quadruplex (QP) and hairpin (HP) secondary structures. Nucleic acid ligands tested were a cMyc QP DNA having nucleotide sequence 5′-[…]-3′ (SEQ ID NO: 176) and a HP pre-rRNA region to which nucleolin binds, having the sequence 5′-[…]-3′ (SEQ ID NO: 177). In the assays, recombinant nucleolin (˜250 nM), which was fused to maltose binding protein and had the sequence under accession number NM_{—}005381 without the N-terminal acidic stretches domain, was incubated with each of the two ³²P-labeled nucleic acid ligands (10 or 250 nM). Nucleolin and the nucleic acid ligand were incubated in the presence or absence of a test compound of Formula A-1, B-1, C-6 or C-7 in an incubation buffer (12.5 mM Tris, pH 7.6, 60 mM KCl, 1 mM MgCl₂, 0.1 mM EDTA, 1 mM DTT, 5% glycerol, 0.1 mg/ml BSA) for 30 minutes at room temperature. Structures for A-1 and B-1 are shown above and structures for C-6 and C-7 are shown hereafter: The resulting complexes were separated on a 6% DNA retardation gel using 0.5× TBE with 20 mM KCl as a running buffer (i.e., electrophoresis mobility shift assay (EMSA)).
# [6] = target: T1, Nucleolin (MBP fusion, lacking …); assay: filter; Bmax 68%; 60 mM KCl, 1 mM MgCl2; settings: label: 32P; G4 parallel
# Experimental: as §1
# [7] = target: T1, Nucleolin (MBP fusion, lacking …); assay: filter; Bmax 51%; 60 mM KCl, 1 mM MgCl2; settings: label: 32P; G4 parallel
# Experimental: as §1
# [8] = target: T1, Nucleolin (MBP fusion, lacking …); assay: EMSA; random single-stranded control; settings: label: 32P, no quadruplex
# Experimental: In the assays, recombinant nucleolin (˜250 nM), which was fused to maltose binding protein and had the sequence under accession number NM_{—}005381 without the N-terminal acidic stretches domain, was incubated with each of the two ³²P-labeled nucleic acid ligands (10 or 250 nM). Nucleolin and the nucleic acid ligand were incubated in the presence or absence of a test compound of Formula A-1, B-1, C-6 or C-7 in an incubation buffer (12.5 mM Tris, pH 7.6, 60 mM KCl, 1 mM MgCl₂, 0.1 mM EDTA, 1 mM DTT, 5% glycerol, 0.1 mg/ml BSA) for 30 minutes at room temperature. Structures for A-1 and B-1 are shown above and structures for C-6 and C-7 are shown hereafter: The resulting complexes were separated on a 6% DNA retardation gel using 0.5× TBE with 20 mM KCl as a running buffer (i.e., electrophoresis mobility shift assay (EMSA)).
# The assay also was conducted using nucleic acid ligands derived from human ribosomal DNA. Sequences of these nucleic acids are shown in the preceding example. It was determined from these assays that compound A-1, but not Actinomycin D, interfered with nucleolin/nucleic acid ligand interactions. […] A “+” represents the weakest nucleolin affinity and least interference by compound A-1 and a “++++” represents the strongest nucleolin affinity and greatest interference by compound A-1.
# T1 sequence (P19338 284-710, one chain of several): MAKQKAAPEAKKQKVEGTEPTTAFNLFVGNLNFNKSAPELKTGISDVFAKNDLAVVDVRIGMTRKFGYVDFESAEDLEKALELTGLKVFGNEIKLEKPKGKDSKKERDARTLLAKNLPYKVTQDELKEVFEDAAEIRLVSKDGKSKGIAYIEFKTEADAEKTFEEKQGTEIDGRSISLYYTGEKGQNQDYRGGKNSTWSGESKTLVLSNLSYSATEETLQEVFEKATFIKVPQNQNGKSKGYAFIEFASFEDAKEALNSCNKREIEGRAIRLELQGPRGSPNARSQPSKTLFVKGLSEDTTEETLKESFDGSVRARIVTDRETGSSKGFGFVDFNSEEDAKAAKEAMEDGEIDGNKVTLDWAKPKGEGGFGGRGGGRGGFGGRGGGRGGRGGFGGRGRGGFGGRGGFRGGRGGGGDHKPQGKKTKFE
binder,measurement,setting,value
B1,Kd,[1],0.6 nM
GGGTCCGGAAGGGGAAGGGTGCCGGCGGGGAGAGAGGGTCGGGGG (structured_DNA) [7253NT],Kd,[2],0.4 nM
GGGAGGGCGCGCGGGTCGGGG (structured_DNA) [8749NT],Kd,[3],1.9 nM
GGGCTGGGTCGGTCGGGCTGGGG (structured_DNA) [10816NT],binding result,[4],no binding
TGGGGAGGGTGGGGAGGGTGGGGAAGG (structured_DNA) [cMyc QP DNA],binding result,[5],binds
GGGTGGCGGGGGGGAGAGGGGGG (structured_DNA) [6960NT],Kd,[6],0.5 nM
GGGCGGGGGGGGCGGGGGG (structured_DNA) [6534NT],Kd,[7],1.1 nM
GTCGTAACGTCGATCAGTTTACGACAT (ssDNA) [RND27],binding result,[8],no binding
